Biological target: T1, human TNF-alpha (Peprotech, London, UK) (human, UniProt P01375 77-233)
T1 construct: Commercial recombinant protein
Assay: direct ELISA, plates coated with 0.5 µg/ml human TNF-alpha; ESBA105 standard series 50-0.5 ng/ml; used to quantify ESBA105 in serum and brain tissue
Experimental: ESBA105 concentrations were determined by triplicate measurements of each sample in a direct ELISA. 96-well plates (NUNC MaxiSorp; Omnilab, Mettmenstetten, Switzerland) were coated with 0.5 μg/ml human TNF-alpha (Peprotech, London, UK) in PBS overnight at 4° C. Between each of the following steps plates were washed three times with TBS-T (0.005% Tween20; Axon Lab, Baden-Dattwyl, Switzerland) using a micro plate washer (ASYS Atlantis, Salzburg, Austria). Unspecific binding sites were saturated by 1.5 hour incubation in PBS/1% BSA/0.2% Tween20. […] Bound ESBA105 was detected with a biotinylated affinity purified polyclonal rabbit anti-ESBA105 antibody (AK3A, ESBATech, Schlieren, Switzerland) that was diluted 1:20′000 in dilution buffer (1.5 h, room temperature). AK3A, in turn, was detected with poly-horseradish peroxidase streptavidin (Stereospecific Detection Technologies, Baesweiler, Germany) at a concentration of 0.2 ng/ml dilution buffer. […] Absorbance was measured at 450 nm in a plate reader (Sunrise; Tecan, Maennedorf, Switzerland) and ESBA105 concentrations in samples were calculated by polynomial regression from a standard curve (GraphPad Prism 4.03; GraphPad Software, Inc., San Diego, Calif.). The minimum quantifiable concentration (LOQ) of ESBA105 was 5 ng/ml in serum and 33 ng/ml in brain tissue, respectively.

T1 sequence (P01375 77-233 limits assumed): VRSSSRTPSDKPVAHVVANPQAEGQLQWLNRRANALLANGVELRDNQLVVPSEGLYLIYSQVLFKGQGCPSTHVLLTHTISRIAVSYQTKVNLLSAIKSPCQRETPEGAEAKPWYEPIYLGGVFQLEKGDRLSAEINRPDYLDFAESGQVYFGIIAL

B1: ESBA105 (scFv)
scFv: MADIVMTQSPSSLSASVGDRVTLTCTASQSVSNDVVWYQQRPGKAPKLLIYSAFNRYTGVPSRFSGRGYGTDFTLTISSLQPEDVAVYYCQQDYNSPRTFGQGTKLEVKRGGGGSGGGGSGGGGSSGGGSQVQLVQSGAEVKKPGASVKVSCTASGYTFTHYGMNWVRQAPGKGLEWMGWINTYTGEPTYADKFKDRFTFSLETSASTVYMELTSLTSDDTAVYYCARERGDAMDYWGQGTLVTVSS
notes: also called ESBA105 scFv (α-TNFalpha); E105
B1: binds.

Reference: patent US20110135644A1 (ESBATECH AN ALCON BIOMEDICAL RESEARCH UNIT, published 2011)
